This is an account of results in paper PMC9468151, “Identification of a binding site on soluble RANKL that can be targeted to inhibit soluble RANK-RANKL interactions and treat osteoporosis” (Nature Communications, 2022).

Where a chain is given by its changes, count along the chain named. In names and notes the source's numbering stands. Several values for one entry are separate records, joined by “and”; a condition that tells them apart may be missing. Identical values can stand only once.

The test system of this assay is BMM cells. The assay can be described thus: Osteoclastogenic assay of WT, single-point mutated sRANKL and L-RANKL. The format is cell-based, mouse. Conditions: for number of osteoclasts (fig. 1f): BMMs, M-CSF 10 ng/mL; for osteoclast formation (fig. S4a): three replicates. The procedure:
Fig. 1 Evidence for selective sRANKL inhibition binding site identification. a Proposed small molecule binding site that can be used to distinguish sRANKL from mRANKL. b he probabilities that distances of residue pairs greater than 1.8 Å in sRANKL (red) and mRANKL (blue). The data are calculated based on conformation trajectories from 100 ns MD simulations on sRANKL and mRANKL. c SDRP frequency in sRANKL and mRANKL. d, e The distance of Y236-D303 and K182-R224 in sRANKL and mRANKL after MD simulation. f, g and h Osteoclastogenesis function of single-point mutated rat sRANKL and WT sRANKL. Representative TRAP staining images from one well each, with triplicate repeats wells of BMM cells isolated from C57BL/6 mice cultured with colony-stimulating factor 1 (M-CSF (10 ng/mL) and either varying WT sRANKL or mutated sRANKL (25–200 ng/mL). The number of osteoclasts counted in the osteoclastogenesis assay with mutated sRANKL. Data were presented as group mean ± s.d., n = 3 biological replicates.
Mouse osteoclasts were cultured according to the previously reported protocols. BMMs were plated in 96-well plates at a density of 6 × 10^3 cells/well with complete medium containing 10 ng/mL M-CSF. The following day, cells were then stimulated with 100 ng/mL sRANKL in the presence or absence of compounds with different concentrations every 2 days until osteoclasts formed. In order to calculate IC50, we set 9 concentrations for each compound and untreated and non-sRANKL unstimulating group as controls, each with triplicated repeated wells. After 5 days, cells were fixed with 4% paraformaldehyde and then applied TRAP-staining to identify osteoclasts by using the TRAP-staining kit. Osteoclasts number (OC No.) in each well was counted and the percentage of inhibition ratio was calculated as follows:1 OCinhibitoryratio%=100−OCNo.treated−OCNo.unstimulating/OCNo.untreated−OCNo.unstimulating×100%
GST-sRANKL was expressed and purified following a previously reported protocol. Rat sRANKL (aa160–318) cDNA was cloned into the bacterial expression vectors pGEX-3X and pGEX-2T with purification GST tag and resultant plasmid named p3rRANKL1. Label-free sRANKL protein in this study was obtained by removing His6-sumo tag from fusion protein His6-sumo-sRANKL. The DNA sequence encoding sRNAKL was inserted downstream the His6-sumo tag of a modified pET20b (+) plasmid. Single point mutations of sRANKL (K182A, R192A, W194A, R224A, H226A, E227A, Q238A, Y242A, H254A, N255A, E270A, K283A, D301A, D303A, or D305A) were constructed by PCR amplification using primer pairs to introduce the designed mutations to pET20b-His6-sumo-sRANKL recombinant plasmid. L-RANKL (binary-RANKL) plasmid was constructed as follow: the consecutive DNA sequence sequentially encoding His6-sumo tag and two sRANKL monomers was cloned into pET20b by PCR amplification using primer pairs to introduce the following restriction enzyme sites to the coding sequences: Nde I-His6-sumo-sRANKL-Bam HI and Bam HI-sRNAKL-Xho I. Each PCR product was double digested with the appropriate restriction enzymes (Thermo) and ligated to the pET20b vector between the Nde I and Xho I sites. Gly-Ser-Gly-Ser was designed to link the two monomers. After confirmed by sequence analysis, the recombinant plasmids were transformed into Escherichia coli BL21 (DE3) cells. The transformed cells were grown in LB media till OD600 about 0.6, then 0.15 mM IPTG was added to induce protein overexpression for 16 h at 20 °C.

B1: H226A: single-point mutated rat sRANKL (protein, UniProt Q9ESE2 69-318, looked up, variant H226A)
extracellular domain: LYFRAQMDPNRISEDSTRCFYRILRLRENTGLQDSTLESEDTEALPDSCRRMKQAFQGAVQRELQHIVGPQRFSGVPAMMEGSWLDVARRGKPEAQPFAHLTINAADIPSGSHKVSLSSWYHDRGWAKISNMTLSNGKLRVNQDGFYYLYANICFRHAETSGSVPADYLQLMVYVVKTSIKIPSSHNLMKGGSTKNWSGNSEFHFYSINVGGFFKLRAGEEISVQVSNPSLLDPDQDATYFGAFKVQDID
modifications: extracellular domain
notes: single-point mutated rat sRANKL
On to B1, for which the “number of osteoclasts (fig. 1f)” value is, setting by setting: (sRANKL protein 25 ng/mL) 0; (sRANKL protein 50 ng/mL) 0; (sRANKL protein 100 ng/mL) 0; (sRANKL protein 200 ng/mL) 0.

B2: Q238A: single-point mutated rat sRANKL (protein, UniProt Q9ESE2 69-318, looked up, variant Q238A)
extracellular domain: B1 extracellular domain with A158H, Q170A
modifications: extracellular domain
notes: as for B1
Consider B2, for which the “number of osteoclasts (fig. 1f)” value reads like this: (sRANKL protein 25 ng/mL) 218 and 174 and 207; (sRANKL protein 50 ng/mL) 153 and 140 and 132; (sRANKL protein 100 ng/mL) 166 and 142 and 153; (sRANKL protein 200 ng/mL) 155 and 163 and 151.

B3: K283A (protein, UniProt Q9ESE2 69-318, looked up, variant K283A)
extracellular domain: B1 extracellular domain with A158H, K215A
modifications: extracellular domain
Regarding B3, the “osteoclast formation (fig. S4a)” value (25 ng/mL) is 4 (2×) and 8; the “osteoclast formation (fig. S4a)” value (50 ng/mL) is listed as 11; the “osteoclast formation (fig. S4a)” value (100 ng/mL) was 15 and 19 and 17; the “osteoclast formation (fig. S4a)” value (200 ng/mL) is 23 and 19 and 24.

B4: E270A: single-point mutated rat sRANKL (protein)
chain: KPEAQPFAHLTINAADIPSGSHKVSLSSWYHDRGWAKISNMTLSNGKLRVNQDGFYYLYANICFRHHETSGSVPADYLQLMVYVVKTSIKIPSSHNLMKGGSTKNWSGNSAFHFYSINVGGFFKLRAGEEISVQVSNPSLLDPDQDATYFGAFKVQDID
modifications: left off: His6, N-terminal, cleaved | SUMO, N-terminal, cleaved
notes: as for B1
With B4, the “number of osteoclasts (fig. 1f)” value (sRANKL protein 25 ng/mL) is recorded as 0, the “number of osteoclasts (fig. 1f)” value (sRANKL protein 50 ng/mL) was 0, the “number of osteoclasts (fig. 1f)” value (sRANKL protein 100 ng/mL) worked out at 0 and the “number of osteoclasts (fig. 1f)” value (sRANKL protein 200 ng/mL) is on record as 0.

B5: D303A: single-point mutated rat sRANKL (protein)
chain: B4 chain with A111E, D144A
modifications: left off: His6, N-terminal, cleaved | SUMO, N-terminal, cleaved
notes: as for B1
B5: the “number of osteoclasts (fig. 1f)” value is reported as 0 (sRANKL protein 25 ng/mL), 0 (sRANKL protein 50 ng/mL), 0 (sRANKL protein 100 ng/mL) and 0 (sRANKL protein 200 ng/mL).

B6: R224A: single-point mutated rat sRANKL (protein)
chain: B4 chain with R65A, A111E
modifications: left off: His6, N-terminal, cleaved | SUMO, N-terminal, cleaved
notes: as for B1
For B6, the “number of osteoclasts (fig. 1f)” value runs as follows: (sRANKL protein 25 ng/mL) 0; (sRANKL protein 50 ng/mL) 0; (sRANKL protein 100 ng/mL) 0; (sRANKL protein 200 ng/mL) 0.

B7: Y242A: single-point mutated rat sRANKL (protein)
chain: B4 chain with Y83A, A111E
modifications: left off: His6, N-terminal, cleaved | SUMO, N-terminal, cleaved
notes: as for B1
In the case of B7, the “number of osteoclasts (fig. 1f)” value by setting is: (sRANKL protein 50 ng/mL) 1 and 2; (sRANKL protein 100 ng/mL) 5 and 7; (sRANKL protein 200 ng/mL) 12 and 14 and 11.

B8: D301A: single-point mutated rat sRANKL (protein)
chain: B4 chain with A111E, D142A
modifications: left off: His6, N-terminal, cleaved | SUMO, N-terminal, cleaved
notes: as for B1
With B8, the “number of osteoclasts (fig. 1f)” value is reported as 0 (sRANKL protein 25 ng/mL), 0 (sRANKL protein 50 ng/mL), 0 (sRANKL protein 100 ng/mL) and 0 (sRANKL protein 200 ng/mL).

B9: E227A: single-point mutated rat sRANKL (protein)
chain: B4 chain with E68A, A111E
modifications: left off: His6, N-terminal, cleaved | SUMO, N-terminal, cleaved
notes: as for B1
B9: the “number of osteoclasts (fig. 1f)” value is given as 0 (sRANKL protein 25 ng/mL), 0 (sRANKL protein 50 ng/mL), 0 (sRANKL protein 100 ng/mL) and 0 (sRANKL protein 200 ng/mL).

B10: WT: wild type recombinant rat sRANKL (protein)
chain: B4 chain with A111E
modifications: left off: His6, N-terminal, cleaved | SUMO, N-terminal, cleaved
notes: wild type recombinant rat sRANKL
For the molecule B10, the “osteoclast formation (fig. S4a)” value is 53 and 61 and 57 (25 ng/mL); 118 and 103 and 116 (50 ng/mL); 201 and 205 (100 ng/mL); 201 and 205 (200 ng/mL). The “number of osteoclasts (fig. 1f)” value runs as follows: (sRANKL protein 25 ng/mL) 53 and 61 and 57; (sRANKL protein 50 ng/mL) 118 and 103 and 116; (sRANKL protein 100 ng/mL) 198 and 201 and 205; (sRANKL protein 200 ng/mL) 198 and 201 and 205. Besides, the “osteoclastogenesis activity, osteoclast number (fig. S3a source data)” value (L-RANKL vs WT sRANKL, listed as WT-RANKL) is 341 and 355 and 358.

B11: K182A: single-point mutated rat sRANKL (protein)
chain: B4 chain with K23A, A111E
modifications: left off: His6, N-terminal, cleaved | SUMO, N-terminal, cleaved
notes: as for B1
As to B11, the “number of osteoclasts (fig. 1f)” value was found to be 0 (sRANKL protein 25 ng/mL), 0 (sRANKL protein 50 ng/mL), 0 (sRANKL protein 100 ng/mL) and 0 (sRANKL protein 200 ng/mL).
